In experiment [1] the target is Monomeric fibrinogen-like domain of human Ang2 (hAng-2FD) (human) (UniProt O15123). Kind of experiment: SPR, peptibody captured. On the technique in general: SPR reads the build-up and loss of mass on a sensor chip optically.
Experiment [2] concerns the target wild-type human Ang-2 (hAng-2-WT) (human) (UniProt O15123). Kind of experiment: SPR, peptibody captured.
Experiment [3] addresses Full-length wild-type human Ang-1 (hAng-1-WT) (human) (UniProt Q15389). Briefly: cell-based or functional assay.
The target is the same in experiment [4]. Kind of experiment: SPR, peptibody captured on anti-human IgG, 25 C.
The target of experiment [5] is wild-type human Ang-2 (hAng-2-WT) (human) (UniProt O15123). Briefly: SPR, peptibody captured on anti-human IgG, 25 C.
Sequence of wild-type human Ang-2 (hAng-2-WT) (human) (O15123 19-496 limits assumed): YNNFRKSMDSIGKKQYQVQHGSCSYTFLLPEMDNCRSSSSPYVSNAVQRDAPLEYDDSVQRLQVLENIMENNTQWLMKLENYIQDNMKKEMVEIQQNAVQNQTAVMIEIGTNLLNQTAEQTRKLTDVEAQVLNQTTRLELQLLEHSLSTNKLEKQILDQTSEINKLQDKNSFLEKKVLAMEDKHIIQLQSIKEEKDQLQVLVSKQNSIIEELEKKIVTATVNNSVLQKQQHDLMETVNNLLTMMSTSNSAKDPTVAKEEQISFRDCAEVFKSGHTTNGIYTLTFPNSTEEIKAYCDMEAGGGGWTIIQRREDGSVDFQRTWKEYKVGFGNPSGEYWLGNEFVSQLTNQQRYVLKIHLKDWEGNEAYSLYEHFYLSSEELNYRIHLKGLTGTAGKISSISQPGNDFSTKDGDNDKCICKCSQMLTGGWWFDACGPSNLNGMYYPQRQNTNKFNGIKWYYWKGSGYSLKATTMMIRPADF
The target is the same in experiment [6]. Kind of experiment: SPR, peptibody captured on anti-human IgG, 25 C. This is another data set of the same source.
Experiment [7] has as its target Full-length wild-type human Ang-1 (hAng-1-WT) (human) (UniProt Q15389). Briefly: SPR, peptibody captured on anti-human IgG, 25 C. This is another data set of the same source.
The target is the same in experiment [8]. Kind of experiment: SPR, peptibody captured on anti-human IgG, 37 C.
Experiment [9] addresses wild-type human Ang-2 (hAng-2-WT) (human) (UniProt O15123). Briefly: SPR, peptibody captured on anti-human IgG, 37 C.
The target of experiment [10] is Monomeric fibrinogen-like domain of human Ang2 (hAng-2FD) (human) (UniProt O15123). Kind of experiment: SPR, peptibody captured on anti-human IgG, 25 C, steady-state.
Experiment [11] deals with Full-length wild-type human Ang-1 (hAng-1-WT) (human) (UniProt Q15389). Briefly: SPR, antibody captured on anti-human IgG, 25 C.
Sequence of Full-length wild-type human Ang-1 (hAng-1-WT) (human) (Q15389 20-498 limits assumed): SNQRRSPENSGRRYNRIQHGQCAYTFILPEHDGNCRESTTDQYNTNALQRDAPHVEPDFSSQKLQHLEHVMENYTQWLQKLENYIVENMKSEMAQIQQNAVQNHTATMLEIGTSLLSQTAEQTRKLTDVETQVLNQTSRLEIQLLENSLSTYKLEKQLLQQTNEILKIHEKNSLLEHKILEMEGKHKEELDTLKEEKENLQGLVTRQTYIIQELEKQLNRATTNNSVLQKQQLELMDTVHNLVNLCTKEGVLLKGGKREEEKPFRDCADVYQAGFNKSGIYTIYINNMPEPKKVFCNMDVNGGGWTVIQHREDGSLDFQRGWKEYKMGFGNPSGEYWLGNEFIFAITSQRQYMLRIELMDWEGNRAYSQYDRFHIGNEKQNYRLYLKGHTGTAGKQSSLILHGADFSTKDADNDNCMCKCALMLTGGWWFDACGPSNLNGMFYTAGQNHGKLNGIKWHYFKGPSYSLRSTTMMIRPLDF
Experiment [12] concerns the target Monomeric fibrinogen-like domain of human Ang2 (hAng-2FD) (human) (UniProt O15123). Kind of experiment: SPR, antibody captured on anti-human IgG, 25 C.
Experiment [13] has as its target wild-type human Ang-2 (hAng-2-WT) (human) (UniProt O15123). Kind of experiment: SPR, antibody captured on anti-human IgG, 25 C.
The target in experiment [14] is Dimeric Human Ang-2FD-mFc (human) (UniProt O15123). Briefly: SPR, antibody captured on anti-human kappa, 25 C.
Sequence of Dimeric Human Ang-2FD-mFc (human) (O15123 282-496 limits assumed): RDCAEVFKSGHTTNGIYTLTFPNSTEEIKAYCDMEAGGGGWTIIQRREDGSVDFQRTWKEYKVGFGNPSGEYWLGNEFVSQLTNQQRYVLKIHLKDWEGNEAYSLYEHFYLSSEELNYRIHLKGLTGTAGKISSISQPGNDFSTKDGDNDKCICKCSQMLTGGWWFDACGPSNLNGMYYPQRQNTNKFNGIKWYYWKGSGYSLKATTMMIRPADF
Experiment [15] deals with Dimeric fibrinogen-like domain of monkey (Macca fascicularis) Ang-2 conjugated to human IgG1 (monkey (Macca fascicularis)). Briefly: SPR, antibody captured on anti-human kappa, 25 C.
Sequence of Dimeric fibrinogen-like domain of monkey (Macca fascicularis) Ang-2 conjugated to human IgG1 (monkey (Macca fascicularis)) (chain, as listed by the source limits assumed): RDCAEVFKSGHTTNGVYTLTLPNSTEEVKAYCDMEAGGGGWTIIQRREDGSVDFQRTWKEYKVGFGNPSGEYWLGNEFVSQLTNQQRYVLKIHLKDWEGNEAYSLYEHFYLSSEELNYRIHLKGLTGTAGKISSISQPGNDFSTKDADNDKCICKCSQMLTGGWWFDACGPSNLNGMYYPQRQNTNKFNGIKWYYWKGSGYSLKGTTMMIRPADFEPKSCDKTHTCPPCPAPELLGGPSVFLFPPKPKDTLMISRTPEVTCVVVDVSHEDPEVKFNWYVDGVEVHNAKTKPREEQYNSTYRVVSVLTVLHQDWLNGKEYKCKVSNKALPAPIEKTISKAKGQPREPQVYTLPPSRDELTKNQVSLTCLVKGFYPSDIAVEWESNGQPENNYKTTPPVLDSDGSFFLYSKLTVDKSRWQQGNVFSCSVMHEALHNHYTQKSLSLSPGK
The target of experiment [16] is Dimeric fibrinogen-like domain of mouse (Mus musculus) Ang-2 conjugated to human IgG1 (mouse (Mus musculus)). Kind of experiment: SPR, antibody captured on anti-human kappa, 25 C.
Sequence of Dimeric fibrinogen-like domain of mouse (Mus musculus) Ang-2 conjugated to human IgG1 (mouse (Mus musculus)) (chain, as listed by the source limits assumed): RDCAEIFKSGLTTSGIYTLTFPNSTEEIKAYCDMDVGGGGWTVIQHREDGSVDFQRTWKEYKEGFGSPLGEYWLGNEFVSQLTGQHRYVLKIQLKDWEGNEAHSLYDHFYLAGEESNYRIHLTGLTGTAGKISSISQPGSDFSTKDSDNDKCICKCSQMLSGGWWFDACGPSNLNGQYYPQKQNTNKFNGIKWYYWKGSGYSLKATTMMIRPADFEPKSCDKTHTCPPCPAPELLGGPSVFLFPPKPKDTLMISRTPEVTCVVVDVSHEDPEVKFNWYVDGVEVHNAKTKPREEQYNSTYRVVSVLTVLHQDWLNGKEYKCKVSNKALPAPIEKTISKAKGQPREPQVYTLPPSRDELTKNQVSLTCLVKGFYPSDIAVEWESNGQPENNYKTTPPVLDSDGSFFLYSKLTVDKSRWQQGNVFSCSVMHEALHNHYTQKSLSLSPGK
Experiment [17] deals with Dimeric Human Ang-2FD-mFc (human) (UniProt O15123). Kind of experiment: SPR, antibody captured on anti-human kappa, 37 C.
The target in experiment [18] is Dimeric fibrinogen-like domain of monkey (Macca fascicularis) Ang-2 conjugated to human IgG1 (monkey (Macca fascicularis)). Kind of experiment: SPR, antibody captured on anti-human kappa, 37 C.
The target in experiment [19] is Dimeric fibrinogen-like domain of mouse (Mus musculus) Ang-2 conjugated to human IgG1 (mouse (Mus musculus)). Briefly: SPR, antibody captured on anti-human kappa, 37 C.
For experiment [20], the target named is Monomeric fibrinogen-like domain of human Ang2 (hAng-2FD) (human) (UniProt O15123). Kind of experiment: SPR, antibody captured on anti-human IgG, 37 C, steady-state.
The target in experiment [21] is hAng-1-WT (human) (UniProt Q15389). Kind of experiment: SPR, 1 uM blocker + 10 nM hAng-1-WT over hTie-2-mFc surface (competitor), 25 C.
Sequence of hAng-1-WT (human) (Q15389 20-498 limits assumed): as the sequence (Q15389 20-498 limits assumed) above
Experiment [22] has the same target. Kind of experiment: SPR, 1 uM blocker + 10 nM hAng-1-WT over hTie-2-mFc surface (competitor), 25 C; RU of Ang-1 bound to Tie-2.

pKd: −log10 of the molar value.

Sequence of Monomeric fibrinogen-like domain of human Ang2 (hAng-2FD) (human) (O15123 282-496 limits assumed): as the sequence (O15123 282-496 limits assumed) above

As usually defined, the pKd is the negative decadic logarithm of the Kd, by convention in mol/L. As usually defined, the koff is the rate constant with which the complex falls apart. For orientation: kon means the second-order rate constant of association. Consider “Control II: peptibody that binds human Ang-2 having the amino acid sequence of 2XCon4(C) (Fc fusion)”, for which the pKd in [1] was 7.05; in experiment [2], 10.35; in [4], 10.11; in experiment [5] it was 10.35; in experiment [6], 9.19; in experiment [7], 10.08. Moreover, the pKd is 9.81 in experiment [8], 8.51 in [9] and 7.05 in [10]. In addition, the T1/2 came to 335 min in experiment [2]; 326 min in experiment [4]; 335 min in [5]; 213 min in experiment [6]; 460 min in experiment [7]; 266 min in [8]. In experiment [9], this substance displayed a T1/2 of 99 min. The substance also showed an inhibition of Ang-1-induced Tie-2 phosphorylation in EA.hy926 cells (Western blot) in experiment [3] of 50 nM. Further, the koff was determined as 3.54e-05 s⁻¹ in experiment [4]; 3.45e-05 s⁻¹ in [5]; 5.41e-05 s⁻¹ in experiment [6]; 2.51e-05 s⁻¹ in experiment [7]; 4.35e-05 s⁻¹ in experiment [8]; 0.000117 s⁻¹ in [9]. Further, the kon came out at 453000 M⁻¹ s⁻¹ in experiment [4]; 773000 M⁻¹ s⁻¹ in [5]; 83000 M⁻¹ s⁻¹ in experiment [6]; 304000 M⁻¹ s⁻¹ in [7]; 281000 M⁻¹ s⁻¹ in experiment [8]; 37900 M⁻¹ s⁻¹ in [9].

With “Control IV: human anti-Ang-2 antibody with the variable regions of 3.19.3”, the inhibition of Ang-1-induced Tie-2 phosphorylation in EA.hy926 cells (Western blot) in experiment [3] worked out at 100 nM. Moreover, the pKd in experiment [11] is 9.77; in experiment [12], 6.90; in [13], 10.14; in [14] it was 10.90; in experiment [15] it was 10.81; in [16] it was 10.40. The negative-log Kd (pKd) in experiment [17] is 11.00; in experiment [18] it was 10.32; in experiment [19] it was 10.27; in experiment [20], 7.03. Moreover, the T1/2 in experiment [11] came to 105 min; in [12] it was 19 s; in experiment [13], 42 min; in experiment [14], 269 min; in experiment [15], 342 min; in [16] it was 289 min. The T1/2 was 184 min in [17], 107 min in [18] and 119 min in experiment [19]. The koff came to 0.000111 s⁻¹ in experiment [11], 0.0356 s⁻¹ in [12] and 0.000274 s⁻¹ in experiment [13]. Moreover, the values for the kon in experiment [11], in [12] and in experiment [13] were 660000 M⁻¹ s⁻¹, 284000 M⁻¹ s⁻¹ and 3.8e+06 M⁻¹ s⁻¹, respectively.

For the substance “Negative Control (irrelevant peptibody) (Fc fusion)”, the Percent of Negative Control Binding with hAng-1-WT (human) [21] was found to be 100%. In addition, the RU (average) with hAng-1-WT (human) [22] was determined as 169 RU.

Values taken from patent publication US20150147342A1.
